Measurements taken from article PMC2782133, “Interaction of HP1 and Brg1/Brm with the Globular Domain of Histone H3 Is Required for HP1-Mediated Repression” (PLoS Genetics, 2009).

Assays:
GST-HP1γ = target: T1, GST-HP1γ (human, UniProt Q13185 1-183); experiment: pull-down; GST fusion proteins bound to agarose beads incubated with purified histones, recombinant B10-tagged H3 constructs or purified Brg1-flag; ELB buffer (50mM HEPES pH 7, 250mM NaCl, 1mM EDTA, 0.1% NP40); elution with 20mM glutathione; western blot (anti-H3, anti-B10 or anti-Brg1); details: both partners purified
T1 construct: HP1γ
T1 sequence (Q13185 whole entry, the tested form may be a part): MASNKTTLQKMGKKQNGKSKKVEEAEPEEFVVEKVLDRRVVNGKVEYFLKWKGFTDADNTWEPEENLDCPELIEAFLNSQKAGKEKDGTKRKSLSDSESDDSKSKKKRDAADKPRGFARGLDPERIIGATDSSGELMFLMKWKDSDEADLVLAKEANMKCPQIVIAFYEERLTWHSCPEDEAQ

GST-HP1α = target: T2, GST-HP1α (human, UniProt P45973 1-191); experiment: as above; details: both partners purified
T2 construct: HP1α, human; also called HP1α-derived GST-fusion protein
T2 sequence (P45973 whole entry, the tested form may be a part): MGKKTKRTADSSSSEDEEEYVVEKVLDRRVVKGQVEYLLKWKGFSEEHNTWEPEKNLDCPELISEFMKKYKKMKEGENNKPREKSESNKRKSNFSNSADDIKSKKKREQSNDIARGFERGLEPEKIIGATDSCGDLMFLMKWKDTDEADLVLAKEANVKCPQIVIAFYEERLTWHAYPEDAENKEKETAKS

Binder | binding result (GST-HP1γ) | fold excess of HP1α over Brg1 needed for similar binding (GST-HP1α) [fold]
rH3(35–66), B10/6xHIS-tagged (domain or fragment, histone H3 aa 35-66 (V35 to P66), recombinant; also called Shadock; histone H3 aa 35 to 66) not shown | binds | ~50
rH3(35–66)V46A, B10/6xHIS-tagged (domain or fragment, histone H3 aa 35-66 with the valine of the PXXVXL motif mutated; also called mutant B10-tagged fragment of histone H3 (aa 35 to 66)) not shown | binds | –
GTVALREIRRYQKSTELLIRKLP (domain or fragment, UniProt P68431 45-67, looked up, histone H3 aa 44-66, recombinant; also called histone H3 aa 44 to 66) [rH3(44–66), B10/6xHIS-tagged] | binds | –
